Reference: article PMC11229354, “PRMT5-mediated arginine methylation of FXR1 is essential for RNA binding in cancer cells”

Key:
Assay in all cases: EMSA; 150 mM KCl, 1 mM Mg2+; EMSA: 50 mM Tris-HCl pH 7.4, 1 mM MgCl2, 0.1 mM EDTA, 150 mM KCl (or LiCl, printed LiCl2), 1 mM DTT, 1 U/ul RNase inhibitor, 100 ug/ml BSA, ~25 C, 20 min; 0.5 pmol RNA in 10 ul
Details in all cases: protein: recombinant; tags: N-terminal GST (pGEX-6P-1); label: 5' 32P or 5' ATTO 550; intramolecular G4 (plausible structure)
[1] = target: GST-FXR1 S382-P476 R386K (human, UniProt P51114 382-476, R386K)
GST-FXR1 S382-P476 R386K, sequence (P51114 382-476 R386K): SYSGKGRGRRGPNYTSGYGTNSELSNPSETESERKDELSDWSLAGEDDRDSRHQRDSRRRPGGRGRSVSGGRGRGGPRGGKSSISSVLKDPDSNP

[2] = target: GST-FXR1 S382-P476 WT (human, UniProt P51114 382-476)
GST-FXR1 S382-P476 WT, sequence (P51114 382-476): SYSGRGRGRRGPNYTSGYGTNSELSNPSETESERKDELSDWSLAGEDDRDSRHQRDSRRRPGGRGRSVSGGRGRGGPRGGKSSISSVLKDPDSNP

[3] = target: GST-FXR1 S382-P476 R386-459K (human, UniProt P51114 382-476, R386K;R388K;R453K;R455K;R459K)
GST-FXR1 S382-P476 R386-459K, sequence (P51114 382-476 R386K/R388K/R453K/R455K/R459K): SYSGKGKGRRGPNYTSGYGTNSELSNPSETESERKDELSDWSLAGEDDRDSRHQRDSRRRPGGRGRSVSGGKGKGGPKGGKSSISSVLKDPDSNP

## GGGGGUGAGGGUCCCAUGUGGUGGCACAGG (structured_RNA) [30-mer p21 3'UTR G4-RNA (seg1)]
[1]
  binding result: no binding
[2]
  Kd: 25 nM
[3]
  binding result: no binding
